This data set concerns the molecule itself. As to the kind of experiment: non-reducing SDS-PAGE with Western blot; lysates of transfected COS-7 cells harvested after 72 h; equal amounts of protein separated by SDS-PAGE under non-reducing conditions; immunoblot with anti-fibin-2 antibody.

B1: fibin (mouse), wild type (natural protein, UniProt Q9CQS3 19-217, looked up)
chain: YFDGPLYPEMSNGTLHHYFVPDGDYEENDDPEKCQLLFRVSDRRRCSQGEGGQASSLLSLTLREEFTVLGRQVEDAGRVLEGISKSISYDLDGEESYGKYLRRESHQIGDAYSNSDKSLTELESKFKQGQEQDSRQESRLNEDFLGMLVHTRSLLKETLDISVGLRDKYELLAHTIRSHGTRLGRLKSDYLEGGAQKTG
modifications: N-glycosylated at Asn30
notes: mouse fibin; also called WT fibin; wild-type fibin; source: COS-7, transfected (pcDps vector), in lysate
Regarding B1, the stoichiometry N (as a rule, a count of units in the complex or per binding partner) came to 2.

Source of the values: PMC3115872, “Characterization of the expression, promoter activity and molecular architecture of fibin” (BMC Biochemistry, 2011).
